# Reference: the DeepSol protein solubility set
# Assay: soluble on expression in E. coli; label from the status in PepcDB or PDB records
row,Sequence,soluble on expression in E. coli
1,MGHHHHHHSHDSKACISIGNQNFEVKADDLEPIMELGRGAYGVVEKMRHVPSGQIMAVKRIRATVNSQEQKRLLMDLDISMRTVDCPFTVTFYGALFREGDVWICMELMDTSLDKFYKQVIDKGQTIPEDILGKIAVSIVKALEHLHSKLSVIHRDVKPSNVLINALGQVKMCDFGISGYLVDSVAKTIDAGCKPYMAPERINPELNQKGYSVKSDIWSLGITMIELAILRFPYDSWGTPFQQLKQVVEEPSPQLPADKFSAEFVDFTSQCLKKNSKERPTYPELMQHPFFTLHESKGTDVASFVKLILGD,not soluble
2,MGHHHHHHSHEVIKGSWQPVGDLLIDSLQDHLEKVKALRGEIAPLKENVSHVNDLARQLTTLGIQLSPYNLSTLEDLNTRWKLLQVAVEDRVRQLHEAHRDFGPASQHFLSTSVQGPWERAISPNKVPYYINHETQTTCWDHPKMTELYQSLADLNNVRFSAYRTAMKLRRLQKALCLDLLSLSAACDALDQHNLKQNDQPMDILQIINCLTTIYDRLEQEHNNLVNVPLCVDMCLNWLLNVYDTGRTGRIRVLSFKTGIISLCKAHLEDKYRYLFKQVASSTGFCDQRRLGLLLHDSIQIPRQLGEVASFGGSNIEPSVRSCFQFANNKPEIEAALFLDWMRLEPQSMVWLPVLHRVAAAETAKHQAKCNICKECPIIGFRYRSLKHFNYDICQSCFFSGRVAKGHKMHYPMVEYCTPTTSGEDVRDFAKVLKNKFRTKRYFAKHPRMGYLPVQTVLEGDNMETPVTLINFWPVDSAPAS,not soluble
3,MGHHHHHHSHHPFVRSAKGVSILRDLINEAMDVKLKRQESQQREVDQDDEENSEEDEMDSGTMVRAVGDEMGTVRVASTMTDGANTMIEHDDTLPSQLGTMVINAEDEEEEGTMKRRDETMQPAKPSFLEYFEQKEKENQINSFGKSVPGPLKNSSDWKIPQDGDYEFLKSWTVEDLQKRLLALDPMMEQEIEEIRQKYQSKRQPILDAIEAKKRRQQNF,soluble
4,MGHHHHHHSHKIRVAHTPDADDAFMFYAMTHGKVDTWLEIEHVIEDIETLNRKAFNAEYEVTAISAHAYALLDDKYRILSAGASVGDGYGPVVVAKSEISLDGKRIAVPGRYTTANLLLKLAVEDFEPVEMPFDRIIQAVLDEEVDAGLLIHEGQITYADYGLKCVLDLWDWWSEQVKLPLPLGLNAIRRDLSVEVQEEFLRAMRESIAFAIENPDEAIEYAMKYSRGLDRERAKRFAMMYVNDYTYNMPESVDAALKKLYEMAEAKGLI,not soluble
5,MGHHHHHHSHMAGWIQAQQLQGDALRQMQVLYGQHFPIEVRHYLAQWIESQPWDAIDLDNPQDRAQATQLLEGLVQELQKKAEHQVGEDGFLLKIKLGHYATQLQKTYDRCPLELVRCIRHILYNEQRLVREANNCSSP,not soluble
6,MGHHHHHHSHMANSAGSMANSAGSMPSSPLRVAVVCSSNQNRSMEAHNILSKRGFSVRSFGTGTHVKLPGPAPDKPNVYDFKTTYDQMYNDLLRKDKELYTQNGILHMLDRNKRIKPRPERFQNCKDLFDLILTCEERVYDQVVEDLNSREQETCQPVHVVNVDIQDNHEEATLGAFLICELCQCIQHTEDMENEIDELLQEFEEKSGRTFLHTVCFY,soluble
7,MGHHHHHHSHMANSAGSMANSAGSPELLTKHNRRVAQKTVESLKRSLMSTNLHPSKQVKTSSQYTIFSTPQIATTTPQTQVSPGMPLMFPGGSPNFVQDIKMENGFMDVDSQSSQCPSVERNFASPRSNCSTVDSIPPMQMGQNQTHLYLPDATNFTFNGNFASPSSNCSTVDSIPPFQIGQRNNHMYLPENSNFPVNGCSPTHFSGGSMTPINNNNNVLINNNNNDFLSQKMSAISIPPQGNFGIKQVYQQTQQFLPQLQPESIPYLAQSHPEQSQYQQQQQPQEQQPPADEPTQSFSDLISSSIGMAPIDTSELIQDIEAELNSLGIQPFK,not soluble
8,MGHHHHHHSHMANVLCNRARLVSYLPGFCSLVKRVVNPKAFSTAGSSGSDESHVAAAPPDICSRTVWPDETMGPFGPQDQRFQLPGNIGFDCHLNGTASQKKSLVHKTLPDVLAEPLSSERHEFVMAQYVNEFQGNDAPVEQEINSAETYFESARVECAIQTCPELLRKDFESLFPEVANGKLMILTVTQKTKNDMTVWSEEVEIEREVLLEKFINGAKEICYALRAEGYWADFIDPSSGLAFFGPYTNNTLFETDERYRHLGFSVDDLGCCKVIRHSLWGTHVVVGSIFTNATPDSHIMKKLSGN,not soluble
9,MGHHHHHHSHMDKQSSAGGVKRSVPCDSNEANEMMPETPTGDSDPQPAPKKMKTSESSTILVVRYRRNFKRTSPEELLNDHARENRINPLQMEEEEFMEIMVEIPAK,not soluble
10,MGHHHHHHSHMDSKAIAERIKKLQAQQEHVRIGGKGTPRRKKKVIHKTAAADDKKLQSNLKKLSVTNIPGIEEVNMIKDDGTVIHFNNPKVQTSVPANTFSVTGSADNKQITEMLPGILNQLGPESLTHLKKLANNVTKLGPDGKGEDEDVPELVGDFDAASKNETKADEQ,not soluble
11,MGHHHHHHSHMEDYSQEDWGNHSQDLHGYPTDQELDEIPVTKRTLKIKQESSEEAQKRDIMQNIVQILESVQLKWELFQSWTDFSRLHLSNKLAIFGIGYNTRWKEDIRYHYAEISSQVPLGKRLREYFNSEKPEGRIIMTRVQKMNWKNVYYKFLEITISEARCLELHMEIDWIPIAHSKPTGGNVVQYLLPGGIPKSPGLYAIGYEECIERPLSPHMEQSSLDPGKEGRVDLETLSAQASLQVEIEPTRIIYCYLGIAEVRTLQQCLFLHFQANTKTFSKDWVGINGFLSQNCIVDPGVSPKSIYIKFVEVERDFLSAGSLVECLEKAIGYPLKFNN,not soluble
12,MGHHHHHHSHMFGCLVAGRLVQTAAQQVAEDKFVFDLPDYESINHVVVLMLGTIPFPEGMGGSVYFSYPDSMDASMALLGFVTNGKPSAIFKISGLKSGEGSQHPFGAMNIVRTPSVAQIGISVELLDSMAQQTPVGNAAVSSVDSFTQFTQKMLDNFYNFASSFAVSQAQMTPSPSEMFIPANVVLKWYENFQRRLAQNPLFWKT,not soluble
13,MGHHHHHHSHMGQFYEAESCLVEAGRLPAGQRRFAHFPGLASELLLTGLPLELIDGSTLSMPVRWVTGLLKELHVRLERRSRLVVLSTVGVPGTGKSTLLNTMFGLRFATGKSCGPRGAFMQLITVAEGFSQDLGCDHILVIDSGGLIGGALTSAGDRFELEASLATLLMGLSNVTVISLAETKDIPAAILHAFLRLEKTGHMPNYQFVYQNLHDVSVPGPRPRDKRQLLDPPGDLSRAAAQMEKQGDGFRALAGLAFCDPEKQHIWHIPGLWHGAPPMAAVSLAYSEAIFELKRCLLENIRNGLSNQNKNIQQLIELVRRL,not soluble
14,MGHHHHHHSHMGTVKQLLLFSETEGNPCFLDICGNFLVVGTDLAHFKSFDLSRREAKAHCSCRSLAELVPGVGGIASLRCSSSGSTISILPSKADNSPDSKICFYDVEMDTVTVFDFKTGQIDRRETLSFNEQETNKSHLFVDEGLKNYVPVNHFWDQSEPRLFVCEAVQETPRSQP,soluble
15,MGHHHHHHSHMIDKATGILLYGLASRLRDTRRLSFLVSYIASKKIHTEPQLSAALEYVRSHPLDPIDTVDFERECGVGVIVTPEQIEEAVEAAINRHRPQLLVERYHFNMGLLMGEARAVLKWADGKMIKNEVDMQVLHLLGPKLEADLE,soluble
16,MGHHHHHHSHMKTRQAFYLHTTKLTRIARRLCREILRPWHAARHPYLPINSAAIKAECTARLPEASQSPLVLKQAVRKPLEAVLRYLETHPRPPKPDPVKSVSSVLSSLTPAKVAPVINNGSPTILGKRSYEQHNGVDGNMKKRLLMPSRGLANHGQTRHMGPSRNLLLNGKSYPTKVRLIRGGSLPPVKRRRMNWIDAPDDVFYMATEETRKIRKLLSSSETKRAARRPYKPIALRQSQALPPRPPPPAPVNDEPIVIED,soluble
17,MGHHHHHHSHMKTTLKMTALAALSAFVLAGCGSHQMKSEGHANMQLQQQAVLGLNWMQDSGEYKALAYQAYNAAKVAFDHAKVAKGKKKAVVADLDETMLDNSPYAGWQVQNNKPFDGKDWTRWVDARQSRAVPGAVEFNNYVNSHNGKVFYVTNRKDSTEKSGTIDDMKRLGFNGVEESAFYLKKDKSAKAARFAEIEKQGYEIVLYVGDNLDDFGNTVYGKLNADRRAFVDQNQGKFGKTFIMLPNANYGGWEGGLAEGYFKKDTQGQIKARLDAVQAWDGK,not soluble
18,MGHHHHHHSHMLLTPRQDEIVALAKANGRVLVDELAARFSVTPQTIRKDLNDLCDTRVLTRIHGGALFPSGNENVKYEARRAIASVEKQAIGAAAAALIPNNSSLFINIGTTTEAVGEALADHHELMVITNNINVANRLRVFPGIEVVIAGGVVRGSDGGIVGEAAVDFIRQFKVDFAVIGVSAIDEDGALLDFDFREVKVAQAIISNARHVILVSDSLKFERTAPVRIGHLSQVHTFITDHCPVDSIRSICADHDVRLIETEARDA,soluble
19,MGHHHHHHSHMNFIKDNSRALIQRMGMTVIKQITDDLFVWNVLNREEVNIICCEKVEQDAARGIIHMILKKGSESCNLFLKSLKEWNYPLFQDLNGQSLFHQ,not soluble
20,MGHHHHHHSHMPKKKTGARKKAENRREREKQLRASRSTIDLAKHPCNASMECDKCQRRQKNRAFCYFCNSVQKLPICAQCGKTKCMMKSSDCVIKHAGVYSTGLAMVGAICDFCEAWVCHGRKCLSTHACACPLTDAECVECERGVWDHGGRIFSCSFCHNFLCEDDQFEHQASCQVLEAETFKCVSCNRLGQHSCLRCKACFCDDHTRSKVFKQEKGKQPPCPKCGHETQETKDLSMSTRSLKFGRQTGGEEGDGASGYDAYWKNLSSDKYGDTSYHDEEEDEYEAEDDEEEEDEGRKDSDTESSDLFTNLNLGRTYASGYAHYEEQEN,soluble
21,MGHHHHHHSHMQEEEEESWSTSSDLTISISEDDLILESPEPQPNPGGKMEGEDGIEALKLIHAEQERVALSTEKNCILQTLSSPDSEKESSTNAPTREPGQTPDSDVPRAQVGQHVATLKEHDNSVKEEATALLRKALTEECGRRSAIHSSESSCSLPSILNDNSGIKEAKPAVWLNSVPTREQEVSSGCGDKSKKENVAADIPITETEAYQLLKKATLQDNTNQTENRFQKTDASVSHLSGLNIGSGAFETKTANKIASEASFSSSEGSPLSRHENKKKPVINLKSNALWDESDDSNSEIEAALRPRNHNTDDSDDFYD,soluble
22,MGHHHHHHSHMQSYLPNDTVESGIHPVYFCSTHYIEMLLKAELPLVFSAFHMSGFAPSQICLQWITQCFWNYLDWIEICHYIATCVFLGPDYQVYICIAVFKHLQQDILQHTQTQDLQVFLKEEALHGFRVSDYFEYMEILEQNYRTVLLRDMRNIRLQST,not soluble
23,MGHHHHHHSHMRENNLHTVCEEAKCPNIHECWAVRRTATFMILGSVCTRACRFCAVKTGLPTELDLQEPERVADSVALMNLKHAVITAVARDDQKDGGAGIFAETVRAIRRKSPFTTIEVLPSDMGGNYDNLKTLMDTRPDILNHNIETVRRLTPRVRARATYDRSLEFLRRAKEMQPDIPTKSSIMIGLGETKEEIIEVMDDLLANNVDIMAIGQYLQPTKKHLKVQKYYHPDEFAELKEIAMQKGFSHCEAGPLVRSSYHADEQVNEASKKRQAQA,soluble
24,MGHHHHHHSHMRGCGSRRLCGSWRGCWSWSGKPSTSSRPSPTAALRSWNNENKSALQLERQVKELKLGEPGSYQPAETAAKAQLSLMALPGEGYGGGHLDNEEEAPRPMLNIPGDLESREAMVAFFNSAGASAQEEQSVCCQPLAHPVASSQKKPEAAAPAPETGGESVCGDTHWALQEAMEKLQQLYGRRRWT,not soluble
